Assay results as given in patent publication US20200325224A1.

Experiments:
[1] = biological target: cynomolgus CD3 epsilon (on expanded cynomolgus T cells) (cynomolgus) (UniProt Q95LI5); experiment: FACS on expanded cynomolgus T cells (cyno PBL), antibody at 10 µg/ml, Alexa488-labelled secondary antibody, geomean of fluorescence
[2] = biological target: human CD3 epsilon (on human T cells / CD3-positive Jurkat E6-1 cells) (human) (UniProt P07766); experiment: FACS on expanded human T cells (hum PBL), antibody at 1 µg/ml, Alexa488-labelled secondary antibody, geomean of fluorescence
Sequence of human CD3 epsilon (on human T cells / CD3-positive Jurkat E6-1 cells) (human) (P07766 23-207 limits assumed): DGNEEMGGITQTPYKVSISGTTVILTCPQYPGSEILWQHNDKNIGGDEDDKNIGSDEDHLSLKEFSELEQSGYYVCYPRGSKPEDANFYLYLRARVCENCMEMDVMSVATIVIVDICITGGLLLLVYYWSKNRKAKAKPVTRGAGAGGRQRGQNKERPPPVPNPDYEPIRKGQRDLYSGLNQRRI

[3] = biological target: human CD3 epsilon (on human T cells / CD3-positive Jurkat E6-1 cells) (human) (UniProt P07766); experiment: FACS on expanded human T cells (hum PBL), antibody at 10 µg/ml, Alexa488-labelled secondary antibody, geomean of fluorescence
[4] = biological target: cynomolgus CD3 epsilon (on expanded cynomolgus T cells) (cynomolgus) (UniProt Q95LI5); experiment: FACS on expanded cynomolgus T cells (cyno PBL), antibody at 0.1 µg/ml, Alexa488-labelled secondary antibody, geomean of fluorescence
[5] = biological target: cynomolgus CD3 epsilon (on expanded cynomolgus T cells) (cynomolgus) (UniProt Q95LI5); experiment: FACS on expanded cynomolgus T cells (cyno PBL), antibody at 1 µg/ml, Alexa488-labelled secondary antibody, geomean of fluorescence
[6] = biological target: human CD3 epsilon (on human T cells / CD3-positive Jurkat E6-1 cells) (human) (UniProt P07766); experiment: FACS on expanded human T cells (hum PBL), antibody at 0.1 µg/ml, Alexa488-labelled secondary antibody, geomean of fluorescence

Sequence of cynomolgus CD3 epsilon (on expanded cynomolgus T cells) (cynomolgus) (Q95LI5 22-197 limits assumed): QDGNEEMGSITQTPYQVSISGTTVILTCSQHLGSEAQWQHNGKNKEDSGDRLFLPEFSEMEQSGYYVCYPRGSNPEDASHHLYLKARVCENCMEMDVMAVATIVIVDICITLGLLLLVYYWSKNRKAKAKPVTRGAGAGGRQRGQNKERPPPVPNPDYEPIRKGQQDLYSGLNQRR

geomean at 10 µg/ml [1]	geomean at 1 µg/ml [2]	geomean at 10 µg/ml [3]	geomean at 0.1 µg/ml [4]	geomean at 1 µg/ml [5]	geomean at 0.1 µg/ml [6]	Substance
34	42	44	33	33	40	M-IgG1 (antibody)
67	56	85	61	64	54	hu-IgG1 (antibody)
19500	9610	15900	5000	16500	2610	anti-CD3 reference antibody SP34-2
40	39	47	37	38	43	Iso rb (antibody)
